The text below walks through data of the supplement of paper PMC5998384.

For data set [1], the system named is HeLa Kyoto. Put plainly: solubility in G1/S (NP-40 vs SDS abundance) (log2 ratio); higher = more soluble. The conditions noted are these: cell cycle stage: G1/S.
For data set [2], the system named is HeLa Kyoto. Nature of the data set: melting temperature (median over replicates), in situ; higher = more thermally stable.
Data set [3] deals with HeLa Kyoto. Put plainly: thermal stability score vs G1/S (z-score of summed log2 fold changes over temperatures); higher = more thermally stable than in G1/S.
Data set [4] has as its system HeLa Kyoto. Nature of the data set: solubility change mitosis vs G1/S (difference of NP-40 vs SDS log2 ratios) (log2 ratio difference); higher = more soluble in mitosis.
[5] abbreviates: cell cycle stage: early G1 (4.5 h after nocodazole release).
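For melting temperature (median over replicates), in situ in this document: HeLa Kyoto cells synchronized by double thymidine or nocodazole block, proteins quantified by TMT10plex mass spectrometry, three independent biological replicates.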
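For solubility change mitosis vs G1/S (difference of NP-40 vs SDS log2 ratios) in this document: synchronized HeLa Kyoto cells (double thymidine block for G1/S, nocodazole release for mitosis), protein amounts in NP-40 versus SDS lysates quantified by mass spectrometry, three biological replicates.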
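For solubility in G1/S (NP-40 vs SDS abundance) in this document: HeLa Kyoto cells arrested at G1/S by double thymidine block, proteins quantified by TMT10plex mass spectrometry in mild NP-40 versus SDS extracts, three biological replicates.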
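For thermal stability score vs G1/S (z-score of summed log2 fold changes over temperatures) in this document: synchronized HeLa Kyoto cells, proteins quantified by TMT10plex mass spectrometry, three biological replicates, mitosis taken 0.5 h after nocodazole release, G1/S directly after double thymidine block.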

Take “MWFFARDPVRDFPFELIPEPPEGGLPGPWALHRGRKKATGSPVSIFVYDVKPGAEEQTQVAKAAFKRFKTLRHPNILAYIDGLETEKCLHVVTEAVTPLGIYLKARVEAGGLKELEISWGLHQIVKALSFLVNDCSLIHNNVCMAAVFVDRAGEWKLGGLDYMYSAQGNGGGPPRKGIPELEQYDPPELADSSGRVVREKWSADMWRLGCLIWEVFNGPLPRAAALRNPGKIPKTLVPHYCELVGANPKVRPNPARFLQNCRAPGGFMSNRFVETNLFLEEIQIKEPAEKQKFFQELSKSLDAFPEDFCRHKVLPQLLTAFEFGNAGAVVLTPLFKVGKFLSAEEYQQKIIPVVVKMFSSTDRAMRIRLLQQMEQFIQYLDEPTVNTQIFPHVVHGFLDTNPAIREQTVKSMLLLAPKLNEANLNVELMKHFARLQAKDEQGPIRCNTTVCLGKIGSYLSASTRHRVLTSAFSRATRDPFAPSRVAGVLGFAATHNLYSMNDCAQKILPVLCGLTVDPEKSVRDQAFKAIRSFLSKLESVSEDPTQLEEVEKDVHAASSPGMGGAAASWAGWAVTGVSSLTSKLIRSHPTTAPTETNIPQRPTPEGVPAPAPTPVPATPTTSGHWETQEEDKDTAEDSSTADRWDDEDWGSLEQEAESVLAQQDDWSTGGQVSRASQVSNSDHKSSKSPESDWSSWEAEGSWEQGWQEPSSQEPPPDGTRLASEYNWGGPESSDKGDPFATLSARPSTQPRPDSWGEDNWEGLETDSRQVKAELARKKREERRREMEAKRAERKVAKGPMKLGARKLD [SCYL1]”: the “solubility in G1/S (log2)” value with HeLa Kyoto [1] is -0.162. Besides, the melting temperature in the data set on HeLa Kyoto [2] (cell cycle stage: G1/S) was 50.9 °C; in the data set with HeLa Kyoto [2] (cell cycle stage: mitosis), 50.3 °C. The thermal stability score in the data set with HeLa Kyoto [3] (setting [5]) turned out to be 0.0922; in the data set on HeLa Kyoto [3] (cell cycle stage: mitosis) it was 0.113. In addition, in the data set with HeLa Kyoto [4], the “solubility change mitosis (log2)” value was -0.184.
On to “MWGDSRPANRTGPFRGSQEERFAPGWNRDYPPPPLKSHAQERHSGNFPGRDSLPFDFQGHSGPPFANVEEHSFSYGARDGPHGDYRGGEGPGHDFRGGDFSSSDFQSRDSSQLDFRGRDIHSGDFRDREGPPMDYRGGDGTSMDYRGREAPHMNYRDRDAHAVDFRGRDAPPSDFRGRGTYDLDFRGRDGSHADFRGRDLSDLDFRAREQSRSDFRNRDVSDLDFRDKDGTQVDFRGRGSGTTDLDFRDRDTPHSDFRGRHRSRTDQDFRGREMGSCMEFKDREMPPVDPNILDYIQPSTQDREHSGMNVNRREESTHDHTIERPAFGIQKGEFEHSETREGETQGVAFEHESPADFQNSQSPVQDQDKSQLSGREEQSSDAGLFKEEGGLDFLGRQDTDYRSMEYRDVDHRLPGSQMFGYGQSKSFPEGKTARDAQRDLQDQDYRTGPSEEKPSRLIRLSGVPEDATKEEILNAFRTPDGMPVKNLQLKEYNTGYDYGYVCVEFSLLEDAIGCMEANQGTLMIQDKEVTLEYVSSLDFWYCKRCKANIGGHRSSCSFCKNPREVTEAKQELITYPQPQKTSIPAPLEKQPNQPLRPADKEPEPRKREEGQESRLGHQKREAERYLPPSRREGPTFRRDRERESWSGETRQDGESKTIMLKRIYRSTPPEVIVEVLEPYVRLTTANVRIIKNRTGPMGHTYGFIDLDSHAEALRVVKILQNLDPPFSIDGKMVAVNLATGKRRNDSGDHSDHMHYYQGKKYFRDRRGGGRNSDWSSDTNRQGQQSSSDCYIYDSATGYYYDPLAGTYYDPNTQQEVYVPQDPGLPEEEEIKEKKPTSQGKSSSKKEMSKRDGKEKKDRGVTRFQENASEGKAPAEDVFKKPLPPTVKKEESPPPPKVVNPLIGLLGEYGGDSDYEEEEEEEQTPPPQPRTAQPQKREEQTKKENEEDKLTDWNKLACLLCRRQFPNKEVLIKHQQLSDLHKQNLEIHRKIKQSEQELAYLERREREGKFKGRGNDRREKLQSFDSPERKRIKYSRETDSDRKLVDKEDIDTSSKGGCVQQATGWRKGTGLGYGHPGLASSEEAEGRMRGPSVGASGRTSKRQSNETYRDAVRRVMFARYKELD [RBM6]”, for which the “solubility in G1/S (log2)” value in the data set with HeLa Kyoto [1] is -0.757. The results for the melting temperature in the data set with HeLa Kyoto [2] (cell cycle stage: G1/S) and in the data set on HeLa Kyoto [2] (cell cycle stage: mitosis) were 48.2 °C and 50 °C, respectively. The thermal stability score with HeLa Kyoto [3] (setting [5]) amounted to 1.19; in the data set with HeLa Kyoto [3] (cell cycle stage: mitosis) it was 1.84. Also, the “solubility change mitosis (log2)” value with HeLa Kyoto [4] came out at 0.361.
